According to patent US20220204643A1 (published 2022):

Assays:
[1] = target: T1, microtubule associated protein RP/EB family member 2, transcript variant 1 (human, UniProt Q15555 1-327)
T1 construct: also called MAPRE2

[2] = target: T2, HEAT repeat containing 3, transcript variant 1 (human, UniProt Q7Z4Q2 1-680)
T2 construct: also called HEATR3
T2 sequence: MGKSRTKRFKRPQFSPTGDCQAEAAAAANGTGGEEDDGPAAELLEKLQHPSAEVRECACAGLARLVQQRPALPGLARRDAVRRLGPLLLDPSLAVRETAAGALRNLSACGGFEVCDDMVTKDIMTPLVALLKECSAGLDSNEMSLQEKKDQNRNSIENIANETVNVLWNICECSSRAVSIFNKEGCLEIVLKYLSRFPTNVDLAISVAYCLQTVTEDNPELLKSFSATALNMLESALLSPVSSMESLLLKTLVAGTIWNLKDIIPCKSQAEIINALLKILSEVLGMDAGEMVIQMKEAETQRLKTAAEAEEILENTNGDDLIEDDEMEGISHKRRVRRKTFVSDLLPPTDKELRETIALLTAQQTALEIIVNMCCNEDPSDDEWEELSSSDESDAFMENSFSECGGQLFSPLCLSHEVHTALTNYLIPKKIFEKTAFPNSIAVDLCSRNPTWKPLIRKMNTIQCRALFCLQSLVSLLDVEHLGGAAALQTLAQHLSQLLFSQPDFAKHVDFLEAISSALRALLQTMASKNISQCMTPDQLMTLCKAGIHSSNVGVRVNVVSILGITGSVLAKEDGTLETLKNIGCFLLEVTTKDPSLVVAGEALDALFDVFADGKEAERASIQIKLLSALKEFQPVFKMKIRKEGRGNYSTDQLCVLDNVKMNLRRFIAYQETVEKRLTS

[3] = target: T3, methionyl-tRNA synthetase 1 (human, UniProt P56192 1-900)
T3 construct: HuProt array protein, full-length recombinant from yeast; also called MARS
T3 sequence: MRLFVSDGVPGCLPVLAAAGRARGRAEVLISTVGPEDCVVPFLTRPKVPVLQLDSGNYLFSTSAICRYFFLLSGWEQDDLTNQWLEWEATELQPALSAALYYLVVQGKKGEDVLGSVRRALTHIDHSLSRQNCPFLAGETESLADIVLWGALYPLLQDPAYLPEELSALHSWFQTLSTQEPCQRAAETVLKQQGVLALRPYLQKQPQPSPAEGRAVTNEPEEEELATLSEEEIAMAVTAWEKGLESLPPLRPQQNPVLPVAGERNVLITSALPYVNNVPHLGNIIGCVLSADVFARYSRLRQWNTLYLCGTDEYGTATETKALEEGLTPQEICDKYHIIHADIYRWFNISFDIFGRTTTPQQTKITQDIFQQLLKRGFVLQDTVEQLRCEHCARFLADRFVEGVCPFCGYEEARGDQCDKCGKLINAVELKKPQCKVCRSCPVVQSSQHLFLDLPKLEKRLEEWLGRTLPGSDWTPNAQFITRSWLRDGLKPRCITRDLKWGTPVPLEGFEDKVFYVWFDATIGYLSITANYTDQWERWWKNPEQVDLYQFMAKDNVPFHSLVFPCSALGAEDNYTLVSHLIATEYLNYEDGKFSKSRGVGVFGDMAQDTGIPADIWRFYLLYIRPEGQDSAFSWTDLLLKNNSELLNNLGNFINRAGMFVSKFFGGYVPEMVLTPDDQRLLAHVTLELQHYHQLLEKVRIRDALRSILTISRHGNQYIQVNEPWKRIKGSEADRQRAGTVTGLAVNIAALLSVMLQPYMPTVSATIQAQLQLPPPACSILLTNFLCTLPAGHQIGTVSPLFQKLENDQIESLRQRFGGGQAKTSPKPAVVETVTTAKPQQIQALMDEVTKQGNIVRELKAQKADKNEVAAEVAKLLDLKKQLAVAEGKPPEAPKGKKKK

Deoxyhypusine synthase = target: T4, Deoxyhypusine synthase (human, UniProt P49366 1-369)
T4 construct: also called DHPS
T4 sequence: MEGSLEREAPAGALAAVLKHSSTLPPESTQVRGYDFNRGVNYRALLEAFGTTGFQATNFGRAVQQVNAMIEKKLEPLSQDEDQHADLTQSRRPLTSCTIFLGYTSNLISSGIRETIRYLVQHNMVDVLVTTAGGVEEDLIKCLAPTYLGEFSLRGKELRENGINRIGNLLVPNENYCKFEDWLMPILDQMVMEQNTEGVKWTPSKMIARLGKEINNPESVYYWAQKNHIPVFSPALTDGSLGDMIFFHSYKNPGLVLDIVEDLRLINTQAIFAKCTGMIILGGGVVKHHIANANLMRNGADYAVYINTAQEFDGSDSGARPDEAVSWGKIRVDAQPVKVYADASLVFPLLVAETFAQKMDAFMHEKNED

[4] = target: T5, rhophilin associated tail protein 1 like, transcript variant 2 (human, UniProt Q96C74 1-230)
T5 construct: HuProt array protein, full-length recombinant from yeast; also called ROPN1L
T5 sequence: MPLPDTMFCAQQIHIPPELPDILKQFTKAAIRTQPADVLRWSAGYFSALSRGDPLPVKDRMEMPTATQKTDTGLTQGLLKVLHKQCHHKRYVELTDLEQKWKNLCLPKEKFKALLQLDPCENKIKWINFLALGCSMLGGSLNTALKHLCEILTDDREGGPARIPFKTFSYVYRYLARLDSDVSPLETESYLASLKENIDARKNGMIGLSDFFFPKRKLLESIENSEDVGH

[5] = target: T6, Dpy-30 histone methyltransferase complex regulatory subunit (human, UniProt Q9C005 1-99)
T6 construct: HuProt array protein, full-length recombinant from yeast
T6 sequence (Q9C005 whole entry, one chain of several): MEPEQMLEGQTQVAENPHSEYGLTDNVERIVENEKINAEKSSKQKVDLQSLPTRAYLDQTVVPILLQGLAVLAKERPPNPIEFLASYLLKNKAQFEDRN

[6] = target: T7, serpin family B member 6, transcript variant 2 (human, UniProt P35237 1-376)
T7 construct: HuProt array protein, full-length recombinant from yeast; also called SERPINB6
T7 sequence: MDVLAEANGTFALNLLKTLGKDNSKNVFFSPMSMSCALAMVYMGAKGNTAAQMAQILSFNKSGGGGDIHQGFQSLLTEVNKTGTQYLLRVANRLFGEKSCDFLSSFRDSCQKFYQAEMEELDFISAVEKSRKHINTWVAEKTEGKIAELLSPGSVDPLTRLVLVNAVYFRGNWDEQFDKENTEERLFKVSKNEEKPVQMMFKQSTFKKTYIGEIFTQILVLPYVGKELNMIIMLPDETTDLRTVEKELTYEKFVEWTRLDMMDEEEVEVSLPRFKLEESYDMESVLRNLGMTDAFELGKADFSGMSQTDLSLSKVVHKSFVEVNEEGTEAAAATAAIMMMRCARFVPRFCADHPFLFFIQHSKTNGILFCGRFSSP

[7] = target: T8, interleukin 27 receptor subunit alpha (human, UniProt Q6UWB1 33-636, limits assumed)
T8 construct: also called IL27RA
T8 sequence: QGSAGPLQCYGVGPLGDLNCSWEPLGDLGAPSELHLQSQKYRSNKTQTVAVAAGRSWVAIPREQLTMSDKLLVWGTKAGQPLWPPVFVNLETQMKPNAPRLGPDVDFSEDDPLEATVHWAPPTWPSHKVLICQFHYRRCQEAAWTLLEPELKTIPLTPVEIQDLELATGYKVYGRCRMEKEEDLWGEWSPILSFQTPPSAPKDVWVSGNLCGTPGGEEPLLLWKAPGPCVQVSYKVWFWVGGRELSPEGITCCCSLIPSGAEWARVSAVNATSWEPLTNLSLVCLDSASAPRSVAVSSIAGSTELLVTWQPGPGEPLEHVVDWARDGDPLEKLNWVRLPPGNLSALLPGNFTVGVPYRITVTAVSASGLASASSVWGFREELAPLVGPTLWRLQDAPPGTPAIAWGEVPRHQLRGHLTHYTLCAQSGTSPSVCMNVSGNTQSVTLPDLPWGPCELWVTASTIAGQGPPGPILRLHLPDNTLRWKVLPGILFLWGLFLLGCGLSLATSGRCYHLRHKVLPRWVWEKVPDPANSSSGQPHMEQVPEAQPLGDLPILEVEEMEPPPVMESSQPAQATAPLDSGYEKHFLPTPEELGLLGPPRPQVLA

BTB domain containing 8 = target: T9, BTB domain containing 8 (human, UniProt Q5XKL5 1-374, limits assumed)
T9 construct: HuProt array protein, full-length recombinant from yeast; also called BTBD8
T9 sequence (Q5XKL5 other isoform, or with tags, fused parts or gaps limits assumed): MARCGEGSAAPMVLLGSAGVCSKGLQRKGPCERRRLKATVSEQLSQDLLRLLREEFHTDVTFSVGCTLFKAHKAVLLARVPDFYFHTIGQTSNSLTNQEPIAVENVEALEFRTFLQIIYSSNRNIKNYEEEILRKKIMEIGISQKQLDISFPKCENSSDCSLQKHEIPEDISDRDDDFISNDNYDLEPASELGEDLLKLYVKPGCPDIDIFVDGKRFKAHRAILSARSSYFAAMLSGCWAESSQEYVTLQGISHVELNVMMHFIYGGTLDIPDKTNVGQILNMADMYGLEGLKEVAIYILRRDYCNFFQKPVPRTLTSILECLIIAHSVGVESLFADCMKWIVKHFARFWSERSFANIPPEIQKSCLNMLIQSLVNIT

[8] = target: T10, Jupiter microtubule associated homolog 2 (human, UniProt Q9H910 1-190)
T10 construct: HuProt array protein, full-length recombinant from yeast; also called HN1L
T10 sequence: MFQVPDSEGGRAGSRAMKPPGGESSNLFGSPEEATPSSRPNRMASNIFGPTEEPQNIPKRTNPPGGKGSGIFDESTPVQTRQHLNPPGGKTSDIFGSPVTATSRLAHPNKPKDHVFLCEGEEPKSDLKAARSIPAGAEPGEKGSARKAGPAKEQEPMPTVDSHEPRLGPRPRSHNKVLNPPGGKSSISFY

T1 sequence (Q15555 whole entry, change not shown): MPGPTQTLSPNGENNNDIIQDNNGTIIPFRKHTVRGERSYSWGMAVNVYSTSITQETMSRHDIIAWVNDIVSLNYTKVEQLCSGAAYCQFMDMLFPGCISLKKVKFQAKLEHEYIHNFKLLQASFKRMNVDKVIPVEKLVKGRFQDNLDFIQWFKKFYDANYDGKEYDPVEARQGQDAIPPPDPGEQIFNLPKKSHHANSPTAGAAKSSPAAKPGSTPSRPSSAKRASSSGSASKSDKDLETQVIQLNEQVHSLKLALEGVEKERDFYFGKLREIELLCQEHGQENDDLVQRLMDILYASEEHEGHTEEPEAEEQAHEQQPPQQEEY

B1: TMES1004 (antibody, V domains shown)
VH: QVQLVQSGAEVKKPGASVKISCKASGYTFTSHAIHWVRQAPGQTFEWLGWINPVNGVTKYSQTFQDRVTIVRDKSATTTYMDLSGLTFEDTAMYYCARVLDFYGSSVLDYWGQGTLVTVSS
VL: QSALTQPASVSGSPGQSITISCTGTSSDIGTYNLVSWYQQRPGKAPKLIIYDVIKRPSGISDRFSGSKSDNMASLTISGLQAEDEAHYYCCSYRSSTAPVVFGGGTKVTVL
binding result [1]: binds

B2: TOVA1004 (antibody, V domains shown)
VH: EVQLVESGGGLVKPGGSLRLSCAASGFTFSSYSMNWVRQAPGKGLEWVSSISSSSSYIYYADSVKGRFTISRDNAKNSLYLQMNSLRAEDTAVYYCARDRGVVVVAATPYYYGMDVWGQGTTVTVSS
VL: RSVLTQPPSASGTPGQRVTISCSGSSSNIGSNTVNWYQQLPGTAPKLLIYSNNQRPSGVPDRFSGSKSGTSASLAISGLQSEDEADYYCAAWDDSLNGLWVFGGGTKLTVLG
binding result [2]: binds

B3: TMEL1038 (antibody, V domains shown)
VH: QVQLVQSGAEVKKPGASVKVSCQASGYTFTGYYIHWVRQAPGQGLEWMGWINPNSGGTNYAQKFQGRVTMTRDTSISTAHMELGRLRSDDTAVYYCATPPSRYGGNYYADYWGQGTLVTVSS
VL: ASALTQPASVSGSPGQSITISCTGTSSDVGGYNYVSWYQQHPGKAPQLMIFDVSNRPSGVSNRFSGSKSGDTASLTISGLQAEDEADYYCSSYTSSSTWVFGGGTKLTVLG
notes: detected with anti-human IgG Fc
binding result [3]: binds

B4: TOVA1003 (antibody)
VH: GEQLLESGGGLVQPGGSLRLSCAASGFTFSHYAMTWVRQAPGKGLEWVSGVSGSGFTTYYADSVKGRFTISRDNAQNTLYLHMNSLRAEDTAIYYCVKDLEVSIGHNFDFWGQGTLVTVSSASTKGPSVFPLAPSSKSTSGGTAALGCLVKDYFPEPVTVSWNSGALTSGVHTFPAVLQSSGLYSLSSVVTVPSSSLGTQTYICNVNHKPSNTKVDKRV
VL: EVQMTQSPSSLSASVGDRVTITCRASQHIAGRLNWYQQKPGKAPKLLIHSASSVQREVPSRFGGSGFGTDFTLTIYSLQAEDFATYFCQQSYYTPPTFAGGTRVDLKRTVAAPSVFIFPPSDEQLKSGTASVVCLLNNFYPREAKVQWKVDNALQSGNSQESVTEQDSKDSTYSLSSTLTLSKADYEKHKVYACEVTHQGLSSPVTKSFNRGEC
binding result (Deoxyhypusine synthase): binds

B5: TMEL1041 (antibody, V domains shown)
VH: EVQLLESGGGLVQPGGSLRLSCAASGFTFRIYAMSWVRQAPGKGLEWVSAISYSGNTTYYADSVKGRFTISRDNSKNTLYLQINNLRAEDTAIYYCAIQEKRELQLRRELDNYWGQGTLVTVSS
VL: PYELTQPPSVSLSPGQTARITCSGDALPKKYAYWYQQKSGQAPVLVIYEDSKRPSGIPERFSGSSSGTTATLTISGAQVDDEGDYYCYSPDSSGNVWVFGGGTKLTVLG
notes: as for B3
binding result [4]: binds | binding result [5]: binds

B6: TMEL1040 (antibody, V domains shown)
VH: EVQLVQSGAEVKKPGESLKISCKGSGYSFTTYWIAWVRQMPGKGLEWMGIIYPADSDTRYSPSFQGQVTMSADQSINTAYLQWSSLKASDTAMYYCARRGREFDYWGQGTLLTVSS
VL: QSALTQPASVSGSPGQSITISCTGTSSDVGSYNLVSWYQQHPGKAPKLMIYEGSKRPSGVSNRFSGSKSGNTASLTISGLQAEDEADYYCCSYAGSSTPWVFGGGTKLTVL
notes: as for B3
binding result [6]: binds

B7: TOVA1002 (antibody, V domains shown)
VH: QVQLVESGGGVVQPGRSLRLSCAASGFTFSNFAMHWVRQAPGKGLEWVVVISSDGSNKNYADSVKGRFTISRDNSKNTLYLQMNSLRAEDTAVYYCARDLGVGSTTYWGQGTLVTVSS
VL: SYVLTQPPSVSVAPGQTARITCGGNNIGSKSVHWYQQKPGQAPVLVVYDDSDRPSGIPERFSGSNSGNTATLTISRVEAGDEADYYCQVWDGYSDPLVFGGGTKLTVLG
binding result [7]: binds

B8: TMES1002 (antibody, V domains shown)
VH: QVQVVESGGGLVKPGGSLRLSCAVSGLDFRDYYVNWIRQAPGKGLEWLSYITSPGGHTSYSDSVKGRFTISRDNAKNSVYLQMDSLTVEDTAVYFCAIKEGYGLSDWGQGTLVTVSS
VL: EIVLTQSPVTLSLSPGERATLSCRASQSVSSSYIAWYQQKPGQAPRLLIYGASTRATGIPDRFSGSGSGTDFTLTISRLEPEDCAVFYCQQYGSSHYTFGQGTKLEIKR
notes: as for B3
binding result (BTB domain containing 8): binds | binding result [8]: binds
